# Test results as given in patent publication US20190153112A1 (IMMUTEP S A S, published 2019).
# T1: IMP321 (recombinant soluble human LAG-3Ig fusion protein) (human, UniProt P18627 23-450)
# T1 construct: extracellular domain; also called sLAG-3Ig; LC1
# T1 sequence (looked up): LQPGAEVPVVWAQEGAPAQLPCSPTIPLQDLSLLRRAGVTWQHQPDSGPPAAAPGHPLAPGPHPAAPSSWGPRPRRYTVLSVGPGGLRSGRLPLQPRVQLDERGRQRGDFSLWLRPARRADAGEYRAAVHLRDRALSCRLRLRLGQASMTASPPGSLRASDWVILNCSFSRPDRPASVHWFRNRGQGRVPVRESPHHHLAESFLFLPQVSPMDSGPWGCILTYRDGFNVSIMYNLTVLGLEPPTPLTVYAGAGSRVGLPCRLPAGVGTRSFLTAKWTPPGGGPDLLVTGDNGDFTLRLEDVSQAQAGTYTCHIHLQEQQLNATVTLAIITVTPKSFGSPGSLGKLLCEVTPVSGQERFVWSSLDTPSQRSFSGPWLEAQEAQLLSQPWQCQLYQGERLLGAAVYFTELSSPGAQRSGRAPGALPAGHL
# B1: chimeric 13E2-human IgG4 antibody Chim13E2IgG4 (antibody, V domains shown)
# VH: QVTLKESGPGILQPSQTLSLTCSFSGFSLSTSGMGLGWIRQPSGKGLEWLTHIWWDDIKRYNPDLRSRLTISKDTSSSQIFLKIASVDTADTATYYCARIVEGSYSSSYFDVWGAGTTVTVSS
# VL: DIVMTQPHKFMSTSVEDRVTITCKASQDVIFDVAWYQQKPGQSPKLLIYSASSRVSGVPDRFTGSGSGTDFTFTISSVQAEDLAVYYCQQHYSTPYTFGGGTTLEIKR
# notes: The light chain is the 13E2 VL with wild-type human kappa; also called chimeric 13E2 IgG4; heavy chain 13E2IgG4mut
# B2: humanized 13E2 monoclonal antibody IMP761 (antibody, human IgG4 S228P, kappa, V domains shown)
# VH: QITLKESGPTLVKPTQTLTLTCTFSGFSLSTSGMGLGWIRQPPGKTLEWLTHIWWDDIKRYNPDLRSRLSITKDTSKNQVVLTMTNMDPLDTGTYYCARIVEGSYSSSYFDVWGQGTLVTVSS
# VL: DIVMTQTPSSLSASVGDRVTITCKASQDVIFDVAWYQQRPGQAPKLLIYSASSRVSGVPSRFSGSGSGTDFTLTISSLQPEDFATYYCQQHYSTPYTFGQGTRLDIKR
# notes: Human IgG4 (S228P) with kappa light chain; also called humanized 13E2 IgG4; VH4/VL3
# Legend:
# [1] = target: IMP321 (recombinant soluble human LAG-3Ig fusion protein) (human) (UniProt P18627); assay: cell-based or functional assay
# [2] = target: human LAG-3 protein (Lymphocyte activation gene-3) on the cell surface (human) (UniProt P18627); assay: flow cytometry on LAG-3-transfected CHO cells; antibody 500 ng/ml
# Chain of human LAG-3 protein (Lymphocyte activation gene-3) on the cell surface (human) (P18627 other isoform, or with tags, fused parts or gaps): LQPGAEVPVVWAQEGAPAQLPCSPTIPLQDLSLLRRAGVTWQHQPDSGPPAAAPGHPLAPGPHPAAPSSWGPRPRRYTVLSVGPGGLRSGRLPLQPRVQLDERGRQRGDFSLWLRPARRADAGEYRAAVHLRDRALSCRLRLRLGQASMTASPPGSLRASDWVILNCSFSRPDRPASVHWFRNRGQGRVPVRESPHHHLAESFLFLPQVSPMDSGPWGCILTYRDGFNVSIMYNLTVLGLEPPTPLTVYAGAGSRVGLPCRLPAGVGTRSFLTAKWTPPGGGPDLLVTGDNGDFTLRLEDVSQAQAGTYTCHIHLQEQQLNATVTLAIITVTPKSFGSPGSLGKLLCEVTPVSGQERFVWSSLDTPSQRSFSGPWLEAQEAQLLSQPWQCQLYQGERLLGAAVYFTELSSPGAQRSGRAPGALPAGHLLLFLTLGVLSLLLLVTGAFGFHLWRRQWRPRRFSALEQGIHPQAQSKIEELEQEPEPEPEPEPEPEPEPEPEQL
# [3] = target: human LAG-3 protein (Lymphocyte activation gene-3) on the cell surface (human) (UniProt P18627); assay: flow cytometry on LAG-3-transfected CHO cells; antibody 2000 ng/ml
# [4] = target: human LAG-3 protein (Lymphocyte activation gene-3) on the cell surface (human) (UniProt P18627); assay: flow cytometry on LAG-3-transfected CHO cells; antibody 10000 ng/ml
# [5] = target: human LAG-3 protein (Lymphocyte activation gene-3) on the cell surface (human) (UniProt P18627); assay: flow cytometry on CD4+ cells of SEB-stimulated PBMCs (Donor 1); antibody 7 ng/ml
# [6] = target: human LAG-3 protein (Lymphocyte activation gene-3) on the cell surface (human) (UniProt P18627); assay: flow cytometry on CD8+ cells of SEB-stimulated PBMCs (Donor 1); antibody 7 ng/ml
# [7] = target: human LAG-3 protein (Lymphocyte activation gene-3) on the cell surface (human) (UniProt P18627); assay: flow cytometry on CD4+ cells of SEB-stimulated PBMCs (Donor 1); antibody 29 ng/ml
# [8] = target: human LAG-3 protein (Lymphocyte activation gene-3) on the cell surface (human) (UniProt P18627); assay: flow cytometry on CD8+ cells of SEB-stimulated PBMCs (Donor 1); antibody 29 ng/ml
# [9] = target: human LAG-3 protein (Lymphocyte activation gene-3) on the cell surface (human) (UniProt P18627); assay: flow cytometry on CD4+ cells of SEB-stimulated PBMCs (Donor 1); antibody 0.4 ng/ml
# [10] = target: human LAG-3 protein (Lymphocyte activation gene-3) on the cell surface (human) (UniProt P18627); assay: flow cytometry on CD4+ cells of SEB-stimulated PBMCs (Donor 1); antibody 1.6 ng/ml
# [11] = target: human LAG-3 protein (Lymphocyte activation gene-3) on the cell surface (human) (UniProt P18627); assay: flow cytometry on CD4+ cells of SEB-stimulated PBMCs (Donor 1); antibody 126 ng/ml
# [12] = target: human LAG-3 protein (Lymphocyte activation gene-3) on the cell surface (human) (UniProt P18627); assay: flow cytometry on CD4+ cells of SEB-stimulated PBMCs (Donor 1); antibody 541 ng/ml
# [13] = target: human LAG-3 protein (Lymphocyte activation gene-3) on the cell surface (human) (UniProt P18627); assay: flow cytometry on CD8+ cells of SEB-stimulated PBMCs (Donor 1); antibody 0.4 ng/ml
# [14] = target: human LAG-3 protein (Lymphocyte activation gene-3) on the cell surface (human) (UniProt P18627); assay: flow cytometry on CD8+ cells of SEB-stimulated PBMCs (Donor 1); antibody 1.6 ng/ml
# [15] = target: human LAG-3 protein (Lymphocyte activation gene-3) on the cell surface (human) (UniProt P18627); assay: flow cytometry on CD8+ cells of SEB-stimulated PBMCs (Donor 1); antibody 126 ng/ml
# [16] = target: human LAG-3 protein (Lymphocyte activation gene-3) on the cell surface (human) (UniProt P18627); assay: flow cytometry on CD8+ cells of SEB-stimulated PBMCs (Donor 1); antibody 541 ng/ml
# [17] = target: human LAG-3 protein (Lymphocyte activation gene-3) on the cell surface (human) (UniProt P18627); assay: flow cytometry on CD4+ cells of SEB-stimulated PBMCs (Donor 1); antibody 2326 ng/ml
# [18] = target: human LAG-3 protein (Lymphocyte activation gene-3) on the cell surface (human) (UniProt P18627); assay: flow cytometry on CD8+ cells of SEB-stimulated PBMCs (Donor 1); antibody 2326 ng/ml
# [19] = target: human LAG-3 protein (Lymphocyte activation gene-3) on the cell surface (human) (UniProt P18627); assay: flow cytometry on CD4+ cells of SEB-stimulated PBMCs (Donor 1); antibody 10000 ng/ml
# [20] = target: human LAG-3 protein (Lymphocyte activation gene-3) on the cell surface (human) (UniProt P18627); assay: flow cytometry on CD8+ cells of SEB-stimulated PBMCs (Donor 1); antibody 10000 ng/ml
# [21] = target: human LAG-3 protein (Lymphocyte activation gene-3) on the cell surface (human) (UniProt P18627); assay: flow cytometry on LAG-3-transfected CHO cells; antibody 0 ng/ml (no-antibody background)
# [22] = target: human LAG-3 protein (Lymphocyte activation gene-3) on the cell surface (human) (UniProt P18627); assay: flow cytometry on CD4+ cells of SEB-stimulated PBMCs (Donor 1); antibody 0 ng/ml (no-antibody background)
# [23] = target: human LAG-3 protein (Lymphocyte activation gene-3) on the cell surface (human) (UniProt P18627); assay: flow cytometry on CD8+ cells of SEB-stimulated PBMCs (Donor 1); antibody 0 ng/ml (no-antibody background)
# [24] = target: IMP321 (recombinant soluble human LAG-3Ig fusion protein) (human) (UniProt P18627); assay: FACS, LAG-3Ig-Alexa 488 (1 µg/ml) pre-incubated with antibody 27 ng/ml, then bound to Raji (MHC class II+) cells
# [25] = target: IMP321 (recombinant soluble human LAG-3Ig fusion protein) (human) (UniProt P18627); assay: FACS, LAG-3Ig-Alexa 488 (1 µg/ml) pre-incubated with antibody 89 ng/ml, then bound to Raji (MHC class II+) cells
# [26] = target: IMP321 (recombinant soluble human LAG-3Ig fusion protein) (human) (UniProt P18627); assay: FACS, LAG-3Ig-Alexa 488 (1 µg/ml) with antibody 0 ng/ml (no-antibody value), bound to Raji (MHC class II+) cells
# [27] = target: IMP321 (recombinant soluble human LAG-3Ig fusion protein) (human) (UniProt P18627); assay: FACS, LAG-3Ig-Alexa 488 (1 µg/ml) pre-incubated with antibody 297 ng/ml, then bound to Raji (MHC class II+) cells
# [28] = target: IMP321 (recombinant soluble human LAG-3Ig fusion protein) (human) (UniProt P18627); assay: FACS, LAG-3Ig-Alexa 488 (1 µg/ml) pre-incubated with antibody 990 ng/ml, then bound to Raji (MHC class II+) cells
# [29] = target: IMP321 (recombinant soluble human LAG-3Ig fusion protein) (human) (UniProt P18627); assay: FACS, LAG-3Ig-Alexa 488 (1 µg/ml) pre-incubated with antibody 3300 ng/ml, then bound to Raji (MHC class II+) cells
# [30] = target: IMP321 (recombinant soluble human LAG-3Ig fusion protein) (human) (UniProt P18627); assay: FACS, LAG-3Ig-Alexa 488 (1 µg/ml) pre-incubated with antibody 11000 ng/ml, then bound to Raji (MHC class II+) cells
# [31] = target: T1, IMP321 (recombinant soluble human …); assay: Biacore T200 SPR, antibody immobilized on C1 chip, IMP321 0.078-2.5 nM as analyte, 25 °C, 1:1 fit, average of three runs
# Protocol: A Biacore™ surface plasmon resonance analysis was performed using the chimeric antibody Chim13E2IgG4 (comprising the chimeric heavy chain 13E2IgG4mut, and the chimeric light chain 13E2IgK, described in Example 17), or the humanized 13E2 antibody (IMP761) described in Example 18, covalently immobilized to a C1 sensor chip. The coating was performed in 10 mM sodium acetate, pH 5.0, to reach 13±1 RU. The recombinant human LAG-3Ig protein (IMP321) was then passed over the captured antibodies at 6 different concentrations, ranging from 0.078-2.5 nM, in analysis buffer (10 mM HEPES pH 7.4, 150 mM NaCl, 3 mM EDTA, 0.05% Tween 20) at 25° C., with regeneration in every cycle. The analysis was carried out on Biacore™ T200 and the data was fitted using the kinetic global fit (Langmuir 1:1) model. The kinetics parameters are recorded in Table 29, and represent the average of three runs.
molecule,measurement,setting,value
isotype control antibody (mIgG1),[CCL4] in THP-1 monocytic cells supernatant; IMP321 20 ng/ml pre-incubated with antibody 2 ng/ml,[1],2050 pg/mL
same,[CCL4] in THP-1 monocytic cells supernatant; IMP321 20 ng/ml pre-incubated with antibody 20 ng/ml,[1],2140 pg/mL
same,[CCL4] in THP-1 monocytic cells supernatant; IMP321 20 ng/ml pre-incubated with antibody 200 ng/ml,[1],2220 pg/mL
same,[CCL4] in THP-1 monocytic cells supernatant; IMP321 20 ng/ml pre-incubated with antibody 2000 ng/ml,[1],2260 pg/mL
same,[CCL4] in THP-1 monocytic cells supernatant; IMP321 20 ng/ml pre-incubated with antibody 20000 ng/ml,[1],2900 pg/mL
same,"[CCL4] in THP-1 monocytic cells supernatant; IMP321 20 ng/ml, antibody 0 ng/ml (no-antibody value)",[1],2110 pg/mL
same,MFI,[2],168 MFI
same,MFI,[3],251 MFI
same,MFI,[4],440 MFI
same,MFI,[5],110 MFI
same,MFI,[6],114 MFI
same,MFI,[7],108 MFI
same,MFI,[8],110 MFI
same,MFI,[9],106 MFI
same,MFI,[10],127 MFI
same,MFI,[11],109 MFI
same,MFI,[12],116 MFI
same,MFI,[13],112 MFI
same,MFI,[14],116 MFI
same,MFI,[15],115 MFI
same,MFI,[16],120 MFI
same,MFI,[17],113 MFI
same,MFI,[18],137 MFI
same,MFI,[19],116 MFI
same,MFI,[20],140 MFI
same,MFI,[21],156 MFI
same,MFI,[22],106 MFI
same,MFI,[23],112 MFI
same,MFI of sLAG-3Ig-Alexa 488,[24],254 MFI
same,MFI of sLAG-3Ig-Alexa 488,[25],324 MFI
same,MFI of sLAG-3Ig-Alexa 488,[26],284 MFI
same,MFI of sLAG-3Ig-Alexa 488,[27],373 MFI
same,MFI of sLAG-3Ig-Alexa 488,[28],361 MFI
same,MFI of sLAG-3Ig-Alexa 488,[29],359 MFI
same,MFI of sLAG-3Ig-Alexa 488,[30],328 MFI
B1,Kd,[31],0.0219 nM
same,koff,[31],0.00064 s⁻¹
same,kon,[31],2.9e+07 M⁻¹ s⁻¹
B2,Kd,[31],0.0228 nM
same,koff,[31],0.00066 s⁻¹
same,kon,[31],2.9e+07 M⁻¹ s⁻¹
